Assay results as given in patent US10975360B2, “Process for the modification of alkanes, fatty acids and fatty alcohols” (priority 2016, dated 2021).

B1: CYP505An: CYP505 cytochrome P450 monooxygenase from Aspergillus niger, SEQ ID No 5 (protein)
chain: MKDAERIPGPKPLPVVGNLLDIDPEHGLQSIIAFADKYGPLFQITINGEKQIFATSQALVDELCDESRFHKAVVTGLEVLRLLAHDGLFTAYHGERGWGIAHRILVPAFGPLRIRNMLDDMSDVAQQLCLKWARQGGSTSINITEDFTRLTLDTIALCTMGFRLNSFYNNETMHPFVQSMLYVLKEADVQANLPGIANSIRVSAQRRMHKNIEAMRTMARGIIQERRKNKNPVDDILNTLLNGRDPVTGEGMSDDSIIDNVITFLIAGHETTSGLLSFTFYFLIQHPHILKKAQEEVDETVGLAQISAQHLAELPYIDAILKESLRLMPTAPGFAVTPKKTEVLGGKWMINAGQPVNVLLPACLRDQSVFGPDADEFHPERMLAENFSKLPPNSWKPFGNGERGCIGRAFAWQEAQLVVAMILQTFDLVPDDPSYQLRIKETLTIKPDGFRIRALLRRGQTATGLSRRSMLVARDGSSGESSNHLAEARGDHAPARGQPVSFFYGSNSGTCKALAHQLASNMMSRGYTTQKLAPLDNAVGNLPRDQPVIILTTTYDGQPTDDAKKFVAWLETGNVPSLQGISYAVFGCGHHDWTQTFYRIPILIDDLMHKAGATRLAPRGAANAAVSDLFSDLEAWEETSLLPALRENFLPSNSTDFDPLNPHQIQLSLSKPRRVDLHKGLIEAKVTAVRVLTSPDTPEKRHLEFCFQGDTSLRPGDHLNILPVNPPSTVSRVLAQFNLAPDYNITVNSFNTLGLPQATPVSASELFSSYVELCQPATRNNLKALIAATQSDPDKQELNRLYDSYEFIVRDKRVSVLDLLEQFPSISLPIAAFISMLPALRVRTYSLSMAPSFKPSHSSLTFSVINEPAWRGSGQHLGVASNYLASLTSGSIFYFSPRPAKESFHLPKDPSNTPIIMICAGSGLAPFLSFIQDRMVLKQQYKPLAKAFLFFGCRGRSLDDLYHEELSEFEAAGVVEIRRAYSKTPDFDIAKGCRYVQHRLVTEGQAILSLWSQNATIYVCGSTNMAKGVEAVLQNMLGPLPKERYVTEIF
modifications: Aspergillus niger
B2: CYP505A1: known sub-terminal fatty acid hydroxylase of medium chain fatty acids from Fusarium oxysporum, Seq ID No 8 (protein, listed as Fusarium oxysporum)
chain: MAESVPIPEPPGYPLIGNLGEFTSNPLSDLNRLADTYGPIFRLRLGAKAPIFVSSNSLINEVCDEKRFKKTLKSVLSQVREGVHDGLFTAFEDEPNWGKAHRILVPAFGPLSIRGMFPEMHDIATQLCMKFARHGPRTPIDTSDNFTRLALDTLALCAMDFRFYSYYKEELHPFIEAMGDFLTESGNRNRRPPFAPNFLYRAANEKFYGDIALMKSVADEVVAARKASPSDRKDLLAAMLNGVDPQTGEKLSDENITNQLITFLIAGHETTSGTLSFAMYQLLKNPEAYSKVQKEVDEVVGRGPVLVEHLTKLPYISAVLRETLRLNSPITAFGLEAIDDTFLGGKYLVKKGEIVTALLSRGHVDPVVYGNDADKFIPERMLDDEFARLNKEYPNCWKPFGNGKRACIGRPFAWQESLLAMVVLFQNFNFTMTDPNYALEIKQTLTIKPDHFYINATLRHGMTPTELEHVLAGNGATSSSTHNIKAAANLDAKAGSGKPMAIFYGSNSGTCEALANRLASDAPSHGFSATTVGPLDQAKQNLPEDRPVVIVTASYEGQPPSNAAHFIKWMEDLDGNDMEKVSYAVFACGHHDWVETFHRIPKLVDSTLEKRGGTRLVPMGSADAATSDMFSDFEAWEDIVLWPGLKEKYKISDEESGGQKGLLVEVSTPRKTSLRQDVEEALVVAEKTLTKSGPAKKHIEIQLPSAMTYKAGDYLAILPLNPKSTVARVFRRFSLAWDSFLKIQSEGPTTLPTNVAISAFDVFSAYVELSQPATKRNILALAEATEDKDTIQELERLAGDAYQAEISPKRVSVLDLLEKFPAVALPISSYLAMLPPMRVRQYSISSSPFADPSKLTLTYSLLDAPSLSGQGRHVGVATNFLSHLTAGDKLHVSVRASSEAFHLPSDAEKTPIICVAAGTGLAPLRGFIQERAAMLAAGRTLAPALLFFGCRNPEIDDLYAEEFERWEKMGAVDVRRAYSRATDKSEGCKYVQDRVYHDRADVFKVWDQGAKVFICGSREIGKAVEDVCVRLAIEKAQQNGRDVTEEMARAWFERSRNERFATDVFD

Columns and labels:
[1] = Biotransformation of tetradecanoic acid to δ-dodecalactone by CYP505An expressed in Pichia pastoris; format: cell-based; conditions: 10 mM fatty acid, 12 h, acidified; via β-oxidation
Procedure: (§1) A transformant of Pichia pastoris KM71 harbouring the gene encoding CYP505An (SEQ ID No 5) was grown and harvested as described above. The harvested cells were resuspended 1 g in 40 ml of MOPS (200 mM, 100 mM glucose, 100 mM glycerol, pH 8) buffer and 12.5 ml was transferred to each of two 500 ml Erlenmeyer flask. One flask was supplemented with 250 μl of a 500 mM dodecanoic acid stock solution (in DMSO) and the other flask with 250 μl of a 500 mM tetradecanoic acid stock solution (in DMSO) to give in each case a final concentration of 10 mM of the fatty acid. The flasks were incubated at 25° C. and 180 rpm for 12 h. Samples (800 μl) were withdrawn after 12 h and 136 μl of 5 M HCl added. These samples were stored for 5-6 h at room temperature to convert hydroxy fatty acids to the lactone. These were then extracted with ethyl acetate (2×800 μl).

[2] = Biotransformation of dodecanoic acid to δ-dodecalactone by CYP505An expressed in Pichia pastoris; format: cell-based; conditions: 10 mM fatty acid, 12 h, acidified
Procedure: as §1

[3] = Biotransformation of tetradecanoic acid using CFE of E. coli, Tris-HCl buffer; format: biochemical
Procedure: (§2) Expression of genes in E. coli was performed by using ZYP-5052 auto-induction medium (Table 1) with in the case of the CYP 1 mM 5-aminolevulinic acid and 0.05 mM FeCl3 added. The CYP505E3 culture was cultivated using baffled flasks and incubated at 20° C. and 180 rpm for 24 h, while the GDH, and HLADH expressing cultures were all cultivated at 25° C. and 200 rpm for 24 h. Cultures were harvested through centrifugation (6 000×g, 10 min) and 1 g (wet weight) resuspended in 2 ml, 5 ml or 10 ml Tris-HCl, Phosphate or MOPS buffer, as indicated, (pH 8, 200 mM) containing 100 mM of glucose and glycerol. CFEs were obtained by a single passage of the suspended cells through a One Shot Cell Disrupter (Constant Systems) at 207 MPa. The soluble fraction was separated from unbroken cells by centrifugation (20 000×g, 20 min).
(§3) The biotransformation reaction mixture (BRM) consisted of CYP and GDH CFE suspensions prepared from cells in Tris-HCl buffers (1 g wet weight in 2 ml buffer) mixed in a 1:1 ratio with 0.1 mM NADPH added. Dodecanoic acid, tetradecanoic acid, hexadecanoic acid, 1-tetradecanol and 1-hexadecanol (20 μl of a 255 mM stock solution in DMSO) were added to 40 ml amber glass vials containing 1 ml BRM to give final substrate concentrations of 5 mmol·LBRM^−1. These vials were placed on an orbital shaker at 20° C., 200 rpm, oscillation amplitude 26 mm. Vials were removed after 24 h for extraction. Biotransformations were stopped by adding 170 ul of 0.5M HCl, extracted with 2×500 μl EtOAc and subjected to GC-MS analysis. A sample of δ-dodecalactone in ethyl acetate (0.1 mM) was also methylated with TMSH and subjected to GC-MS analysis.

[4] = Biotransformation of hexadecanoic acid using CFE of E. coli, Tris-HCl buffer; format: biochemical
Procedure: as §2, §3

[5] = Biotransformation of dodecanoic acid using CFE of E. coli, Tris-HCl buffer; format: biochemical; conditions: C12 fatty acid; CYP505A1 only tested in CFEs of E. coli
Procedure: as §2, §3

[6] = Biotransformation of 1-tetradecanol using CFE of E. coli, Tris-HCl buffer; format: biochemical; conditions: C14 alcohol; CYP505A1 only tested in CFEs of E. coli
Procedure: as §2
as §3, with “Vials were removed after 24 h for extraction. Biotransformations were stopped by adding 170 ul of 0.5M HCl, extracted with 2×500 μl EtOAc and subjected to GC-MS analysis. A sample of δ-dodecalactone in ethyl acetate (0.1 mM) was also methylated with TMSH and subjected to GC-MS analysis.” left out

[7] = C14 fatty acid, CYP505A1 only tested in CFEs of E. coli
[8] = C16 fatty acid, GC-MS peak height

Molecule | δ-dodecalactone production from tetradecanoic acid [1] | δ-dodecalactone production from dodecanoic acid [2] | products identified from tetradecanoic acid (GC-MS, methylated samples) ([3]; 5 mmol/L substrate, CFE of E. coli, Tris-HCl, 24 h) | other hydroxylase activities (in brackets) C14FA [3, 7] | ω-7 hydroxylase activity C14FA [3, 7] | products identified from hexadecanoic acid (GC-MS, methylated samples) ([4]; 5 mmol/L substrate, Tris-HCl, 24 h) | other hydroxylase activities (in brackets) C16FA [4, 8] | ω-7 hydroxylase activity C16FA [4, 8] | other hydroxylase activities (in brackets) C12FA [5] | ω-7 hydroxylase activity C12FA [5] | ω-7 hydroxylase activity C14o [6]
B1 | δ-dodecalactone was produced | δ-dodecalactone was produced |  |  |  |  |  |  |  |  | 
B2 |  |  | only sub-terminally hydroxylated products | (++) (++ 0.1 million < RA < 1 million) | − | only sub-terminally hydroxylated products | (++) (++ 0.1 million < RA < 1 million) | − | (+++) (+++ 1 million < RA < 10 million) | − | −
